From doi:10.1101/2024.03.13.584817 (bioRxiv, 2024) come the findings set out here.

For orientation: Kd means the concentration at which binding is half-saturated. Read a low Kd as a tighter complex.

For experiment [1], the target named is dROS1 ECR construct 1-9 (126-2113) (Drosophila, UniProt P13368 126-2113). The experiment in a line: SPR. (SPR reads the build-up and loss of mass on a sensor chip optically.)
Experiment [2] addresses T1, dROS1 ECR construct 1-4 (126-1298), His-tagged (Drosophila, UniProt P13368 126-1298).
T1 sequence (looked up): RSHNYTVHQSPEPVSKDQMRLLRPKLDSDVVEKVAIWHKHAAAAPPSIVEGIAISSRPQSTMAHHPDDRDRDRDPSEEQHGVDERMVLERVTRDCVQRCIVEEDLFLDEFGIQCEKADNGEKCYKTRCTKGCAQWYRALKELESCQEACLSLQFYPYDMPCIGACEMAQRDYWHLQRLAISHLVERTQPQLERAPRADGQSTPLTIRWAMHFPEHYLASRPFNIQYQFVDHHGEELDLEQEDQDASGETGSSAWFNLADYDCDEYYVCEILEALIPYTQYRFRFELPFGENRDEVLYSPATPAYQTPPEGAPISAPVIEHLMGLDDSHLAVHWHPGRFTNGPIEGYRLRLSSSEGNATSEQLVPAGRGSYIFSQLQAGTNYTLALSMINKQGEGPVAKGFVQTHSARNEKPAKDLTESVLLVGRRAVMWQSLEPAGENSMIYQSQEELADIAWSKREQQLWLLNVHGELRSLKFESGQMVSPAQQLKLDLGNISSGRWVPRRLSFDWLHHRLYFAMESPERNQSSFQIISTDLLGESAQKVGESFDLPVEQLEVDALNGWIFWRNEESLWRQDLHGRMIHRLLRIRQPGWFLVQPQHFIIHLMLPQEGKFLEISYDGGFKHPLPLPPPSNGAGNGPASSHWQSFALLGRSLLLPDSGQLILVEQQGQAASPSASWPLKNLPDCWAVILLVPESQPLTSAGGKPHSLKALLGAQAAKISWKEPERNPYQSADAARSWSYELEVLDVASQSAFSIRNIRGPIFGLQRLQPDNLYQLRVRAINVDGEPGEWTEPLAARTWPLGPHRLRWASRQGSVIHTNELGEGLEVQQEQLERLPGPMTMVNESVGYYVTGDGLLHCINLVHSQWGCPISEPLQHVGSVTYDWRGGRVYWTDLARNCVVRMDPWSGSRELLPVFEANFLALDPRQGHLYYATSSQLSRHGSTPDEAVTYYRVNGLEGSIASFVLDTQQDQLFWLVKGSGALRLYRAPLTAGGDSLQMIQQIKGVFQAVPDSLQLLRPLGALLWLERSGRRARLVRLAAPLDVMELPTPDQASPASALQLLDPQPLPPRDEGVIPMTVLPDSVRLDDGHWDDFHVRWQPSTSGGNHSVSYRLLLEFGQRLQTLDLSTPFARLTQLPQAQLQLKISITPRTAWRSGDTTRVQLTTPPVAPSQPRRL
The experiment in a line: SPR.

B1: BOSS ECR (102-510), His-tag cleaved (domain or fragment, Drosophila, UniProt P22815 102-510, looked up)
chain: GTTASLVPEICLNGLQLTVNSADEGTVIRKQEEFVKILEGDVVLSVLTKDPDSALFVINRVNQANLIMADFEIGIRAISIDNASLAENLLIQEVQFLQQCTTYSMGIFVDWELYKQLESVIKDLEYNIWPIPGTRAHLFPKVAHLLHQMPWGEKIASVEIATETLEMYNEFMEAARQEHMCLMHFKSDDNVYIMFGNKLASHFKENGTLFSVPTDRTDDEFLADLPNRAFVLMENEIDLSTAVELDATPTALDEILIGKSVLPSRVLSFAGSIIDLMNWLRGSLSKHCKRGEEHDLYVLESCFNFLNFIEDWRTSEYRQAHDTAEILSLLLMRKLGTAMNFQMYQKKVLTLDKITGESRTELREIASQNFVTNVTTYYHYNRDNHTSLELKTKFGQVFNCQYSAGDNRR
Turning to B1, the values for the Kd in experiment [1] and in experiment [2] were 4.4 µM and 3 to 5 µM, respectively.
